Measured values taken from patent publication US20240067748A1 (NONA BIOSCIENCES SUZHOU, published 2024).
Numbering of substitutions follows the chain as printed.

T1: human TROP2 protein (Sino Biological, #10428-H08H) (human, UniProt P09758 27-274)
T1 construct: bought protein; also called human Trop2 protein antigen (His tag); not shown: His tag
T1 sequence (looked up): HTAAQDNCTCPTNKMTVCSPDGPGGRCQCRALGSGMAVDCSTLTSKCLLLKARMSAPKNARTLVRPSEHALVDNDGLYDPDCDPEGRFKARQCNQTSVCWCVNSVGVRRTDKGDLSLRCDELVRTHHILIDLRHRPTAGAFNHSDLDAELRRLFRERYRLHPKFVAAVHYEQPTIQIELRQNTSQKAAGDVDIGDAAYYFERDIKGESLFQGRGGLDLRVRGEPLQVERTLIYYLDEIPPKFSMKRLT

T2: monkey Trop2 protein (Sino Biological, #90893-C08H) (monkey, UniProt A0A2K5UE71 27-274)
T2 construct: bought protein; also called monkey Trop2 protein antigen (His tag)
T2 sequence: T1 sequence (looked up) with M36V, K46E, S67N, I204V

T3: human Trop2 on cells (human, UniProt P09758 27-323)
T3 construct: whole, on cells; also called hTrop2; 293T-human Trop2 cells
T3 sequence (looked up): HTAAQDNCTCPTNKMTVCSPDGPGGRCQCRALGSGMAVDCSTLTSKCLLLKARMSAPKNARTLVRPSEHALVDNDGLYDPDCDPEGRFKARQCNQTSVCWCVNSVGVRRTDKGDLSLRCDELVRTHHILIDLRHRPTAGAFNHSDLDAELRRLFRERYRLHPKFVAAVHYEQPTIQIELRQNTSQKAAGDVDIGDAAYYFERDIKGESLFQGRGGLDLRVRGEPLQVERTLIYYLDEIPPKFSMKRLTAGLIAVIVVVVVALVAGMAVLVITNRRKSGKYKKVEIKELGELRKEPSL

B1: PR001168 (antibody, human IgG1, kappa, V domains shown)
VH: QVQLVESGGGVVQPGRSLRLSCATSGFIFSSYGMHWVRQAPGKGLDWVAVIWYDGSNKYYADSVKGRFTISRDNSKNTLYLQMNSLRVEDTAVYYCARETSSWYVGYLQHWGQGTLVTVSS
VL: EIVMTQSPATLSVSPGERVSLSCRASQSVNGNVAWYQQKPGQAPRLLIYAASTRATGIPARFSGSGSGTESTLTISSLQSEDCAVYYCQQYNNWPSTFGPGTKLEVTR
notes: fully human IgG1/kappa; also called antibody No. (28)
B2: PR001164 (antibody, human IgG1, kappa, V domains shown)
VH: QVQLQQSGPGLVKPSQTLSLTCAISGDSVSSTSAVWNWIRQSPSRGLEWLGRTCYRSKWYNDYAVSVKSRITITPDTSKNQFSLRLNPVTPEDTAVYYCARGDFRFDSWGQGTLVTVSS
VL: DIQLTQSPSFLSASVGDRVTITCRASQGISSYLAWYQQKPGKAPKLLIYAASTLQSGVPSRFSGSGSGTEFTLTISSLQPEDFATYYCQQVKIYPLTFGGGTKVEIKR
notes: fully human IgG1/kappa; also called antibody No. (25)
B3: PR001143 (antibody, human IgG1, kappa, V domains shown)
VH: QVQLVESGGGVVQPGRSLRVSCAASGFIFSTYGMHWVRQAPGKGLEWVAVIWYDGSNEDYVDSVKGRFTISRDNSKNTLYLQMNSLRGEDTAVYYCARGGYNSGWWAFDVWGQGTLVTVSS
VL: DIQMTQSPSSLSASVGDRVTITCRASQGISHFLAWYQQKPGKVPKLLIYAASTLQSGVPSRFSGSGSGTDFTLTISSLQPEDVATYYCQKFNSAPLTFGGGTKVEIKR
notes: fully human IgG1/kappa; also called antibody No. (10)
B4: PR001153 (antibody, human IgG1, kappa, V domains shown)
VH: QVQLQESGPGLVKPSGTLSLTCAVSGGSISSSNWWSWVRQPPGKGLEWIGEIYHDGSTDYNPSLKSRVIISVDKSKNQFSLKVRSVTAADTAVYYCARDNWGFDYWGQGTLVTVSS
VL: EIVLTQFPGTLSLSPGERATLSCRSSQSVSSSYLAWYQQKPGQAPRLLISGASSRATGIPDRFSGSGSGTDFTLTISRLEPEDFAVYYCQQYGSSPRTFGQGTKVEIKR
notes: fully human IgG1/kappa; also called antibody No. (16)

Target: T1, human TROP2 protein (Sino Biological, …)
Test: BLI, Octet RED96, AHC sensor
Method: (§1) Specifically, a human TROP2 protein (Sino Biological, #10428-H08H) or a monkey Trop2 protein (Sino Biological, #90893-C08H) was diluted to 200 nM with a PBS buffer (pH 7.4) containing 0.1% (w/w) BSA and 0.02% (v/v) tween 20, and incubated with the AHC sensor respectively. 40 nM Trop2 antibody was incubated at 30° C. for 3 min with the AHC sensor loaded with the human Trop2 protein or monkey Trop2 protein respectively. The reaction mixture was incubated at 30° C. for another 5 min in a PBS buffer (pH 7.4) containing 0.1% (v/w) BSA and 0.02% (v/v) Tween 20. The association and dissociation signals between the Trop2 antibody and the human Trop2 protein or monkey Trop2 protein were recorded by Octet Red 96 in real time. The affinity and the association and dissociation constants were determined by Octet using software.

Point of comparison: B4, Kd 0.0323 nM. Against it:
- B1 — 49-fold higher, 1.59 nM
- B2 — 75-fold higher, 2.41 nM
- B3 — 210-fold higher, 6.94 nM

Point of comparison: B2, Response 0.194. Against it:
- B1 — higher, 0.333
- B3 — higher, 0.335
- B4 — higher, 0.381

Point of comparison: B1, koff 0.00014 s⁻¹. Against it:
- B2 — 1.9-fold higher, 0.000262 s⁻¹
- B3 — 4-fold higher, 0.000556 s⁻¹
- B4 — 55-fold lower, 2.53e-06 s⁻¹

Point of comparison: B2, kon 109000 M⁻¹ s⁻¹. Against it:
- B1 — within 1.5-fold, 88000 M⁻¹ s⁻¹
- B3 — within 1.5-fold, 80100 M⁻¹ s⁻¹
- B4 — within 1.5-fold, 78600 M⁻¹ s⁻¹

With B4 the “fold lower KD than the reference antibody Tab (hRS7)” value was about 10 fold.

Target: T2, monkey Trop2 protein (Sino Biological, …)
Test: BLI, Octet RED96, AHC sensor
Method: as §1

Point of comparison: B3, Kd 12.4 nM. Against it:
- B1 — 5.1-fold lower, 2.45 nM
- B2 — 6.1-fold lower, 2.04 nM
- B4 — 69-fold lower, 0.181 nM

Point of comparison: B3, Response 0.308. Against it:
- B1 — higher, 0.311
- B2 — lower, 0.173
- B4 — higher, 0.337

Point of comparison: B1, koff 0.000145 s⁻¹. Against it:
- B2 — within 1.5-fold, 0.000162 s⁻¹
- B3 — 4.4-fold higher, 0.000645 s⁻¹
- B4 — 14-fold lower, 1.07e-05 s⁻¹

Point of comparison: B4, kon 59300 M⁻¹ s⁻¹. Against it:
- B1 — the same, 59300 M⁻¹ s⁻¹
- B2 — within 1.5-fold, 79400 M⁻¹ s⁻¹
- B3 — within 1.5-fold, 52100 M⁻¹ s⁻¹

Target: T3, human Trop2 on cells
Test: flow cytometry on 293T-human Trop2 cells
Method: The cell density was determined, and the cells were resuspended to 1×10⁶ cells/mL in PBS. 100 μL of cell suspension was taken from each well and added to a 96 well V-bottom plate. The 96-well V-bottom plate was centrifuged at 1000 rpm for 5 min and washed once with PBS+0.5% BSA (VWR, #0332-100G). […] After 1 h, the cells were washed twice with PBS+0.5% BSA. The cells were incubated with 100 μL of Alexa Fluor 488 goat anti-human IgG (Life technologies, 1:1000, #A-11013) at 4° C. for 1 h in the dark, and washed twice with PBS+0.5% BSA. The cells were resuspended in 200 μL of PBS+0.5% BSA. The fluorescence intensity of the cells was analyzed using a FACS verse flow cytometer. All procedures were performed on ice.

Point of comparison: B1, EC50 0.669 nM. Against it:
- B2 — 3.6-fold higher, 2.4 nM
- B3 — within 1.5-fold, 0.795 nM
- B4 — 3.7-fold higher, 2.47 nM

Point of comparison: B4, “Maximum (MFI)” value 6940 MFI. Against it:
- B1 — lower, 6780 MFI
- B2 — higher, 8950 MFI
- B3 — lower, 6300 MFI

Point of comparison: B3, Top % 97.2%. Against it:
- B1 — higher, 105%
- B2 — higher, 138%
- B4 — higher, 107%

Target: T2, monkey Trop2 protein (Sino Biological, …)
Test: BLI, Octet RED96; ratio against KD for human Trop2 protein
Method: as §1

Point of comparison: B3, “KD (monkey)/KD (human)” value 1.78. Against it:
- B1 — lower, 1.54
- B2 — lower, 0.85
- B4 — higher, 5.61
